For three molecules, fluorescent signal (fluorescentsignal) results are on record in US20250387450A1.

This test has as its target TRPV1 disordered region polypeptide (UniProt Q8NER1). Nature of the test: modified sandwich ELISA, fluorescence grade by the table's key.

B1: engineered scaffold protein S005 (designed binder)
chain: MIKEEHVIIQAEFYLNPDQSGEFMFDFDGDEIFHVDMAKKETVWRLEEFGRFASFEAQGALANIAVDKANLEIMTKRSNYTPMGDTRPRFLWQLKFECHFFNGTERVRLLERCIYNQEESVRFDSDVGEYRAVTELGRPDAEYWNSQKDLLEQRRAAVDTYCRHNYGVGESFTVQGGSHHHHHHLE
With B1, the fluorescent signal (fluorescentsignal) was 100000 to 250000.

B2: engineered scaffold protein S068 (designed binder)
chain: GDTRPRFLWQLKFECHFFNGTERVRLLERCIYNQEESVRFDSDVGEYRAVTELGRPDAEYWNSQKDLLEQRRAAVDTYCRHNYGVGESFTVQRRVEPKVTVYPSKTQPLQHHNLLVCSVSGFYPGSIEVRWFRNGQEEKAGVVSTGLIQNGDWTFQTLVMLETVPRSGEVYTCQVEHPSVTSPLTVEWRASGGGGSGGGGSGGGGIKEEHVIIQAEFYLNPDQSGEFMFDFDGDEIFHVDMAKKETVWRLEEFGRFASFEAQGALANIAVDKANLEIMTKRSNYTPITNVPPEVTVLTNSPVELREPNVLICFIDKFTPPVVNVTWLRNGKPVTTGVSETVFLPREDHLFRKFHYLPFLPSTEDVYDCRVEHWGLDEPLLKHWEFDAPSGGSHHHHHHLE
The molecule B2 registered a fluorescent signal (fluorescentsignal) of 50000 to 100000.

B3: engineered scaffold protein S090 (designed binder)
chain: IKEEHSIRQNEMYLNPDQSGLFEFHLDGQPIFRVDMQKKRTKWQLEEFGRFASFEAQGALANIAVDKANLEIMTKRSNQSEAGSHSWQLIFVCEFHEGTESVRLSERCYYNQELSVSFNSDVGEYRAVTELGRPDAEYWNSQKDLLEQRRAAVDTYCRHNYGVGESFTVQRRGGSHHHHHHLE
The molecule B3 displayed a fluorescent signal (fluorescentsignal) of 100000 to 250000.
